One molecule from paper PMC9399999 (Nature Communications, 2022) can be followed below.

The experiment has as its target prototypic SARS-CoV-2 RBD (residues 319-541) (SARS-CoV-2, prototype (GISAID …, UniProt P0DTC2)). Description: SPR. To be noted: both partners purified.

What is called Kd is the constant that tells how readily two partners part at equilibrium. A higher Kd goes with a looser complex.

B1: S304 antibody (IgG1) (antibody, V domains shown)
VH: EVQLVESGGGLVQPGGSLRLSCAASGFTFSSYDMHWVRQTTGKGLEWVSTIGTAGDTYYPDSVKGRFTISREDAKNSLYLQMNSLRAGDTAVYYCARGDSSGYYYYFDYWGQGTLLTVSS
VL: DIQMTQSPSSLSAAVGDRVTITCRASQSIGSYLNWYQQKPGKAPKLLIYAASSLQSGVPSRFSGSGSGTDFTLTISSLQPEDFAIYYCQQSYVSPTYTFGPGTKVDIK
notes: IgG1
Regarding B1, the Kd was 5.61 nM.
